In patent publication US20200308261 (published 2020):

Assays:
[1] = molecular target: T1, rodent Aβ 3pE-40 (rodent); experiment: ELISA sandwich, up to 10 ng/mL
T1 chain: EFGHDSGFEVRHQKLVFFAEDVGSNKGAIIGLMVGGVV

[2] = molecular target: human Aβ 1-40 (human); experiment: ELISA sandwich, up to 10 ng/mL
[3] = molecular target: human Aβ 1-42 (human); experiment: ELISA sandwich, up to 10 ng/mL
[4] = molecular target: T2, human Aβ 11pE-42 (human); experiment: ELISA sandwich, up to 10 ng/mL
T2 chain: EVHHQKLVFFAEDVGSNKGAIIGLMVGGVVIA

[5] = molecular target: T3, human Aβ 11pE-40 (human); experiment: ELISA sandwich, up to 10 ng/mL
T3 chain: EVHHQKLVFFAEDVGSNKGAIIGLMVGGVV

[6] = molecular target: human Aβ 1-40 (human); experiment: SPR up to 50 nM

Measured: binding result

B1: BAMB31 (antibody, V domains shown)
VH: EIQLQQSGPELVKPGTSVKVSCKASGHVFTSYDMYWVKQSHGKSLEWIGYIDSDNGDTSYNQKFKGKATLTVDKSSSTAYMHLNSLTSEDSAVYYCAYYRYAMDYWGQGTSVTVSS
VL: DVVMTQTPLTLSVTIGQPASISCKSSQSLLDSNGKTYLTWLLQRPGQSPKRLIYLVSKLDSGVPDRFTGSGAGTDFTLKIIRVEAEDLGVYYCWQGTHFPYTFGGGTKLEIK
not listed: [6]
no binding: all other assays above

B2: BAMB31_2a (mIgG2a) (antibody, V domains shown)
VH: EIQLQQSGPELVKPGTSVKVSCKASGHVFTSYDMYWVKQSHGKSLEWIGYIDSDNGDTSYNQKFKGKATLTVDKSSSTAYMHLNSLTSEDSAVYYCAYYRYAMDYWGQGTSVTVSS
VL: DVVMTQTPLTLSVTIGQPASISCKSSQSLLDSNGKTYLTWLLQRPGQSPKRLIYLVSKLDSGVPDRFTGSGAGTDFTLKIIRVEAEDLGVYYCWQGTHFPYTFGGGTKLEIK
no binding: [6]
